# ± gives the uncertainty stated by the source.
# Test: amyloid nucleation score (Sup35N fusion, yeast selection) (log enrichment); library NNK3; higher = more nucleation; inactive = no reads after selection
# Outline: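 Growth for 7 days at 30°C on medium lacking adenine and uracil followed a 24-hour induction with 100 μM copper sulfate of psi-negative yeast expressing peptides of 20 random codons fused to Sup35N. Input and output plasmid inserts were sequenced with Illumina, and sequences with under 100 input reads were excluded. Nucleation score is the DiMSum log enrichment of output over input reads, centred on the mode score of non-aggregating sequences.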
row,Substance,amyloid nucleation score
1,AKYIEHGYCF,inactive
2,LWVRIKARTFNFS,0.228 ± 0.19
3,PLFNRYVSF,inactive
4,VIFSITANIRAQFLFYCYRV,-0.083 ± 0.81
5,RDFRKSIYTCLEYYWHMVVT,inactive
6,AYCPKTALEVY,inactive
7,MMVVNRGDHQDGGEAYEVV,inactive
8,RTRFQITCQEETTCPRFS,0.92 ± 0.16
9,RETLS,inactive
10,DLIWWRGAQAVNTLNSGSKR,0.115 ± 1
11,LFWPICFHNMTFVLYTSLLN,inactive
12,VWRHQDLGARAKAASHG,inactive
13,MRWVHSHANHPLHA,inactive
14,ASAFYRCVGGIVYVHTIVGV,inactive
15,CLIFDLSRKKYWVKRDRKAW,1.91 ± 0.062
16,HGVPYAIEASMLMFYLTFWR,inactive
17,MIYSTRSVFDFCGTFNTVVY,inactive
18,VFCHTAIL,inactive
19,FQVYFLSVYACRCLMARLGS,inactive
20,WCARSTWKISIEY,inactive
21,MSKYVGRIGCLWGNSASRAR,inactive
22,CTVPMPDSVNVSAE,inactive
23,FGVQVWLMLFLGNVYIWMVM,inactive

row,Substance,amyloid nucleation score
1,RYDCRQPIAEFVVWAV,inactive
2,FYKGKG,inactive
3,TKHETSLVCRLLTETRFKNI,inactive
4,SVSVVKSSEILSSMGPCGGT,inactive
5,LHEVLF,inactive
6,PCHPRGKRENTMRAWGRSCE,inactive
7,NSHWWCSGFVSVVKIVAEFG,1.23 ± 0.1
8,GDSSVTWI,inactive
9,PQDRFSE,1.29 ± 0.14
10,LVILVVDSRRYDMCLSNRDF,inactive
11,IRRDLYQATPRNLVWAYFGW,inactive
12,FYFNRHRHHNVCRYLIGHPC,inactive
13,MYYMVTGRLVICRN,inactive
14,KLDLKCIIRHWV,inactive
15,TTLGHTPPVCFSDPWAQARA,inactive
16,WHWCCDSNMMRVIFTWFFSL,inactive
17,KDYLWNILRIT,inactive
18,EPRRLRITCEYTVNRRLSDE,inactive
19,LWWISWRRGSQSMVVSG,inactive
20,ERSQKWVNF,inactive
21,KIFSSLFRK,0.251 ± 0.18
22,CFAYCFLSLFEMRIWTN,-0.074 ± 0.64
23,KLLFLSYTYWWKSHFWRFRT,inactive

row,Substance,amyloid nucleation score
1,IMTSFPGEFPLSLHNMCASC,inactive
2,KGSTLLSNIARMVVTCKARP,inactive
3,FSFNQWDLLKMSIGCFKRCK,inactive
4,VLGNRRFSGLFGEYQGKTTG,-0.593 ± 1.1
5,WNMSVRRISYEDL,inactive
6,WIRIVRELGRSVR,inactive
7,DYQTHLCSEGLALLMRKGSR,inactive
8,RIQCLCVDVLSVMLSVHA,1.48 ± 0.11
9,NKLFEDSQAETS,inactive
10,INGDMFSSFENVCYYEVSSL,-0.325 ± 0.3
11,NRATVYMTQAKGCCSALFQV,0.315 ± 0.3
12,HPGFTWY,inactive
13,TWRYWFKLESYNVYWRLLPA,-0.582 ± 1
14,VIIYI,inactive
15,RRPVRSSNGALTLICRDREF,inactive
16,MVGRGEQVM,inactive
17,VIRVTWGYNWNNYVKHVYRS,0.35 ± 0.55
18,AHVLVSFCFSFTRSVKFGLV,inactive
19,RSQEVKTVGSLWQFFVSVLG,inactive
20,SCSSCYIELKWLYLRILLDC,inactive
21,IVISEALVFASGYKQVFNSV,inactive
22,EVYYPDVNLLEPGAVKLGRH,inactive
23,RSRGWDWFEVSIIVRCSMWD,inactive

row,Substance,amyloid nucleation score
1,PVNFFKKFMSAMEVRYHRTK,-0.046 ± 0.38
2,LASKLDCVLPHYNVGRCNDP,0.297 ± 0.7
3,TPWSYASLVLSVQCFGRLIM,inactive
4,YCAGWFFMFSV,0.586 ± 0.2
5,GVLQLNVIVTYFVMDMCSWL,1.78 ± 0.095
6,VSWYCCTFAAFILWNSSWCI,inactive
7,LTQMCFTTSVFLRLAWVPFK,inactive
8,AHRLHSLINSLTLSNRSMM,inactive
9,TKSRIWG,inactive
10,FTGKRSALGCIGVCILF,-0.598 ± 1.2
11,YRLVSLYFVLLFFGA,inactive
12,VNTSINVYRYPFRCRSYRMH,0.833 ± 0.085
13,GNKMVLVW,inactive
14,CSLTRFRWGYRTFEDNAPFH,1.57 ± 0.075
15,TVSTE,inactive
16,FQNHVSASKVVWHRFNRRKD,inactive
17,FDYSIGL,inactive
18,PIFFMIVYAVATYCKEGSHS,inactive
19,EYESMI,inactive
20,SWLFGLCYF,2.06 ± 0.085
21,SAFCCRSMSGVEFLRAFVSK,inactive
22,SFLSWMVFANFKRVHPGWVP,inactive
23,WVGGPQNQRPANWTFGMWFH,inactive

row,Substance,amyloid nucleation score
1,TVMDVLCECYMIVFRG,0.875 ± 0.13
2,PSFMLVVIKVTYVMADSNMR,inactive
3,LSLATTSTLTLPMWKGTRLN,0.744 ± 0.2
4,RFYGDM,inactive
5,CLFSGEGLARKCYSDNS,inactive
6,LSKLPTKMACPLMVRS,0.928 ± 0.24
7,FCHLLVMLFYKGPKVFCIVM,inactive
8,ITHFIMCPYYDYQRDGHWIT,inactive
9,KMWCNGMAISLHVRRLCQV,inactive
10,FKIEDQYNLMHRVFLVSNGG,inactive
11,MSWLKQGLTDR,inactive
12,NHIYGMSAFQSGHCGPCRSN,inactive
13,SDAVSIWGQKSNISSICNDS,inactive
14,TTILLTFDTGTIS,inactive
15,NHFAAMLSCFSSRVVVTYQA,inactive
16,TYRRFMDNNGVIILILPNER,1.74 ± 0.072
17,RFDWRLSCTGRNMVASLLFV,inactive
18,LTWKFSATCIGVKT,inactive
19,FVYFNT,inactive
20,RRPLVWKFFQNLGTMN,inactive
21,QMKKLWFF,inactive
22,NSFFKGGWMHPG,inactive
23,TICLSRVTYVSRQEWGSASV,-0.023 ± 1

row,Substance,amyloid nucleation score
1,VGETWNSVACVLTQLWLTCE,-0.014 ± 0.26
2,YMLSGPRWFV,inactive
3,SYMPGNLSGLWAHLLMEKNC,inactive
4,VFVFLPSWDISYDDPRGWSV,0.241 ± 0.19
5,DSSLIAGPHVVCSWGLKNFS,inactive
6,AKSKSIRERLVVFEASQTRY,inactive
7,FTLASRLLWGRMCNV,inactive
8,ADPSMVNVICHGLSDRGSY,inactive
9,INMRFIQKRMFVYLNYSWYA,inactive
10,CNSETRAFYYLALWVLFFFN,inactive
11,GPEHQSVPRAFHQLRYLIYN,inactive
12,FQPMV,inactive
13,LIELSSSPRSYGHQVLM,inactive
14,GSMLKAMELSDVVGSCIY,inactive
15,WSTLKMVRVCYGASFSNVYM,inactive
16,ARPMIPMCLLQRAMYPLYSP,inactive
17,LVRKAAVPN,inactive
18,FFLAGLFCAISV,inactive
19,GWPVSLN,inactive
20,LLSVICLTSIHF,2.74 ± 0.067
21,LWPIGIFKKCYVDRICYYCV,inactive
22,YLIGLRCWCSL,inactive
23,CLLNGDLHVEGWTLV,inactive

row,Substance,amyloid nucleation score
1,DMGRCCSRKLRRRTPYVKGR,inactive
2,TKCNDYFNVSRYSSLDS,inactive
3,NYRRGVRKPSFCL,inactive
4,SEHFRN,inactive
5,SGGTEKRSKRAGLLLFRTEE,inactive
6,LKLMKNDCRFSNGNLVVVRV,inactive
7,HFAYRFCYLANRRRDVYRSA,inactive
8,DHCGNFEDRWICVINNMRVS,inactive
9,LGIRWLLACWVVENLDFPNI,-0.719 ± 1
10,ANGLWKRIAFEGTARCEGMG,inactive
11,PLYVQSG,inactive
12,STVQLYSPIQESVVTVFTNK,inactive
13,YELPDWSRYKQFVLLG,inactive
14,CCIKGHFPSSFGSWAKYLHV,inactive
15,VNFSYNYVGWCFMQLCSAAN,1.74 ± 0.086
16,KTFMSCFGMGKEEGLSHFPR,inactive
17,TVYYTLFATIWMLGVFFLNN,inactive
18,VTHGSVCFTTIYRTIWRFNR,inactive
19,PRCMYRLVFICGPGFRCSAG,-0.07 ± 0.47
20,LCLRRGGFVRIGVWVFVFYG,inactive
21,NHDIDALTQTQPTDNSYL,inactive
